Assay results reported in article PMC2666446 (Journal of molecular biology, 2008).
Like-named read-outs stand apart in the source and are kept apart here.

T1: MutS (Escherichia coli, UniProt P23909 1-853)
T1 sequence: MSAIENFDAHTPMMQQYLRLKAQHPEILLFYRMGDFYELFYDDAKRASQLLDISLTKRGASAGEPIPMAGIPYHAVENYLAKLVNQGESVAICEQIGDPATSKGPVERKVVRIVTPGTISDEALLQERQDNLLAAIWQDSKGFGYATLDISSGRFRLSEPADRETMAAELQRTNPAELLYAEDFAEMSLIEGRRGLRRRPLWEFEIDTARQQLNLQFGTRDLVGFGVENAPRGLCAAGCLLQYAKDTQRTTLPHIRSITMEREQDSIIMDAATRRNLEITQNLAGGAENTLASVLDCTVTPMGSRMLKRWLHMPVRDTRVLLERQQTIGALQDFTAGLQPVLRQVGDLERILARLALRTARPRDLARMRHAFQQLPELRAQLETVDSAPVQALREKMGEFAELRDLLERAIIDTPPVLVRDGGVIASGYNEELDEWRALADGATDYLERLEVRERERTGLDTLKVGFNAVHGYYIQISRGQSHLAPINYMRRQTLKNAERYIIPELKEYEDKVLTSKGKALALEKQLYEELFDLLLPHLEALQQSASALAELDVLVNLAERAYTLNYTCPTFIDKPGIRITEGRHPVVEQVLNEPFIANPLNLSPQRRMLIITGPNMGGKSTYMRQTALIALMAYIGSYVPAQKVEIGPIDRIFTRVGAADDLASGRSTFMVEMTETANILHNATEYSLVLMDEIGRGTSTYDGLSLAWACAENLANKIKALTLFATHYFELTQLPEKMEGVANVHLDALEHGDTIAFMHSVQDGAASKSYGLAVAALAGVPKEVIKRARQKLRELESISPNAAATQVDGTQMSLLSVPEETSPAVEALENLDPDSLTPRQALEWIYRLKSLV


Legend:
[1] = target: the molecule itself; assay: other fluorescence titration
[2] = target: the molecule itself; assay: other fluorescence titration; remark: listed apart in the source
MutS [3] = target: T1, MutS; assay: FRET equilibrium titration
MutS [4] = target: T1, MutS; assay: FRET equilibrium titration; remark: listed apart in the source
MutS [5] = target: T1, MutS; assay: stopped-flow FRET kinetics
MutS [6] = target: T1, MutS; assay: stopped-flow FRET kinetics; remark: listed apart in the source
MutS [7] = target: T1, MutS; assay: competition
MutS [8] = target: T1, MutS; assay: competition; remark: listed apart in the source
MutS [9] = target: T1, MutS; assay: competition; remark: listed apart in the source

Row | Binder | Kd (MutS [3]) | Kd (MutS [4]) | other results
1 | E. coli His6-MutS (natural protein, UniProt P23909 1-853, looked up) MSAIENFDAHTPMMQQYLRLKAQHPEILLFYRMGDFYELFYDDAKRASQLLDISLTKRGASAGEPIPMAGIPYHAVENYLAKLVNQGESVAICEQIGDPATSKGPVERKVVRIVTPGTISDEALLQERQDNLLAAIWQDSKGFGYATLDISSGRFRLSEPADRETMAAELQRTNPAELLYAEDFAEMSLIEGRRGLRRRPLWEFEIDTARQQLNLQFGTRDLVGFGVENAPRGLCAAGCLLQYAKDTQRTTLPHIRSITMEREQDSIIMDAATRRNLEITQNLAGGAENTLASVLDCTVTPMGSRMLKRWLHMPVRDTRVLLERQQTIGALQDFTAGLQPVLRQVGDLERILARLALRTARPRDLARMRHAFQQLPELRAQLETVDSAPVQALREKMGEFAELRDLLERAIIDTPPVLVRDGGVIASGYNEELDEWRALADGATDYLERLEVRERERTGLDTLKVGFNAVHGYYIQISRGQSHLAPINYMRRQTLKNAERYIIPELKEYEDKVLTSKGKALALEKQLYEELFDLLLPHLEALQQSASALAELDVLVNLAERAYTLNYTCPTFIDKPGIRITEGRHPVVEQVLNEPFIANPLNLSPQRRMLIITGPNMGGKSTYMRQTALIALMAYIGSYVPAQKVEIGPIDRIFTRVGAADDLASGRSTFMVEMTETANILHNATEYSLVLMDEIGRGTSTYDGLSLAWACAENLANKIKALTLFATHYFELTQLPEKMEGVANVHLDALEHGDTIAFMHSVQDGAASKSYGLAVAALAGVPKEVIKRARQKLRELESISPNAAATQVDGTQMSLLSVPEETSPAVEALENLDPDSLTPRQALEWIYRLKSLV |  |  | stoichiometry N [1]: 3.7 MutS monomers per heteroduplex; stoichiometry N [2]: 3.58 MutS monomers per heteroduplex
2 | E. coli His6-mutS-A842E (natural protein, UniProt P23909 1-853, looked up) MSAIENFDAHTPMMQQYLRLKAQHPEILLFYRMGDFYELFYDDAKRASQLLDISLTKRGASAGEPIPMAGIPYHAVENYLAKLVNQGESVAICEQIGDPATSKGPVERKVVRIVTPGTISDEALLQERQDNLLAAIWQDSKGFGYATLDISSGRFRLSEPADRETMAAELQRTNPAELLYAEDFAEMSLIEGRRGLRRRPLWEFEIDTARQQLNLQFGTRDLVGFGVENAPRGLCAAGCLLQYAKDTQRTTLPHIRSITMEREQDSIIMDAATRRNLEITQNLAGGAENTLASVLDCTVTPMGSRMLKRWLHMPVRDTRVLLERQQTIGALQDFTAGLQPVLRQVGDLERILARLALRTARPRDLARMRHAFQQLPELRAQLETVDSAPVQALREKMGEFAELRDLLERAIIDTPPVLVRDGGVIASGYNEELDEWRALADGATDYLERLEVRERERTGLDTLKVGFNAVHGYYIQISRGQSHLAPINYMRRQTLKNAERYIIPELKEYEDKVLTSKGKALALEKQLYEELFDLLLPHLEALQQSASALAELDVLVNLAERAYTLNYTCPTFIDKPGIRITEGRHPVVEQVLNEPFIANPLNLSPQRRMLIITGPNMGGKSTYMRQTALIALMAYIGSYVPAQKVEIGPIDRIFTRVGAADDLASGRSTFMVEMTETANILHNATEYSLVLMDEIGRGTSTYDGLSLAWACAENLANKIKALTLFATHYFELTQLPEKMEGVANVHLDALEHGDTIAFMHSVQDGAASKSYGLAVAALAGVPKEVIKRARQKLRELESISPNAAATQVDGTQMSLLSVPEETSPAVEALENLDPDSLTPRQELEWIYRLKSLV |  |  | stoichiometry N [1]: 2.21 MutS monomers per heteroduplex; stoichiometry N [2]: 2.27 MutS monomers per heteroduplex
3 | 30-AA (dsDNA) DNA 1: AACTGCCAAGCACCAGTGTCAGCGTCGTAT DNA 2: ATACGACGCTGACACTGGTGCATGGCAGTT | 214 nM | 108 nM | Kd (MutS [5]): 63 nM; Kd (MutS [6]): 153 nM
4 | 30-GG (dsDNA) DNA 1: AACTGCCAGGCACCAGTGTCAGCGTCGTAT DNA 2: ATACGACGCTGACACTGGTGCGTGGCAGTT | 168 nM | 137 nM | 
5 | 30-AG (dsDNA) DNA 1: AACTGCCAAGCACCAGTGTCAGCGTCGTAT DNA 2: ATACGACGCTGACACTGGTGCGTGGCAGTT | 319 nM | 251 nM | 
6 | 30-TT (dsDNA) DNA 1: AACTGCCATGCACCAGTGTCAGCGTCGTAT DNA 2: ATACGACGCTGACACTGGTGCTTGGCAGTT | 291 nM | 321 nM | 
7 | 30-CT (dsDNA) DNA 1: AACTGCCACGCACCAGTGTCAGCGTCGTAT DNA 2: ATACGACGCTGACACTGGTGCTTGGCAGTT | 324 nM | 331 nM | 
8 | 30-2ΔT (dsDNA) DNA 1: AACTGCCAGGCACCAGTGTCAGCGTCGTAT DNA 2: ATACGACGCTGACACTGGTGCCTTTGGCAGTT | 89 nM | 74 nM | 
9 | 30-CC (dsDNA) DNA 1: AACTGCCACGCACCAGTGTCAGCGTCGTAT DNA 2: ATACGACGCTGACACTGGTGCCTGGCAGTT | 300 nM | 410 nM | 
10 | 30-GC (30-bp homoduplex) (dsDNA) DNA 1: AACTGCCAGGCACCAGTGTCAGCGTCGTAT DNA 2: ATACGACGCTGACACTGGTGCCTGGCAGTT |  |  | Kd (MutS [7]): 30500 nM; Kd (MutS [8]): 23100 nM
11 | 90-bp homoduplex (dsDNA) DNA 1: CGCAGTGCTAAGACGTACCATGCAACCGTAGATTCTAACTGCCAGGCACCAGTGTCAGCGTCGTATAGTCGTGTATAGATCGTTATCTGC DNA 2: GCAGATAACGATCTATACACGACTATACGACGCTGACACTGGTGCCTGGCAGTTAGAATCTACGGTTGCATGGTACGTCTTAGCACTGCG |  |  | Kd (MutS [8]): ~3700 nM; IC50 (MutS [9]): ~3600 nM
12 | AACTGCCAGGCACCAGTGTCAGCGTCGTAT (ssDNA) [30-ssDNA] |  |  | Kd (MutS [8]): 6500 nM; IC50 (MutS [9]): ~6200 nM
13 | 30-TG (dsDNA) DNA 1: AACTGCCATGCACCAGTGTCAGCGTCGTAT DNA 2: ATACGACGCTGACACTGGTGCGTGGCAGTT | 80 nM | 70 nM | 
14 | 30-AC (dsDNA) DNA 1: AACTGCCAAGCACCAGTGTCAGCGTCGTAT DNA 2: ATACGACGCTGACACTGGTGCCTGGCAGTT | 154 nM | 97 nM | 
